Measurements published in US20240024499A1.

Target: glypican-3 (GPC3) on GPC3-positive liver cancer cell lines HepG2-C3A and Hep3B (human) (UniProt P51654)
Assay: flow cytometry on GPC3-positive HepG2-C3A and Hep3B cells, anti-hIgG-AF488 detection

Chain of glypican-3 (GPC3) on GPC3-positive liver cancer cell lines HepG2-C3A and Hep3B (human) (P51654 25-580): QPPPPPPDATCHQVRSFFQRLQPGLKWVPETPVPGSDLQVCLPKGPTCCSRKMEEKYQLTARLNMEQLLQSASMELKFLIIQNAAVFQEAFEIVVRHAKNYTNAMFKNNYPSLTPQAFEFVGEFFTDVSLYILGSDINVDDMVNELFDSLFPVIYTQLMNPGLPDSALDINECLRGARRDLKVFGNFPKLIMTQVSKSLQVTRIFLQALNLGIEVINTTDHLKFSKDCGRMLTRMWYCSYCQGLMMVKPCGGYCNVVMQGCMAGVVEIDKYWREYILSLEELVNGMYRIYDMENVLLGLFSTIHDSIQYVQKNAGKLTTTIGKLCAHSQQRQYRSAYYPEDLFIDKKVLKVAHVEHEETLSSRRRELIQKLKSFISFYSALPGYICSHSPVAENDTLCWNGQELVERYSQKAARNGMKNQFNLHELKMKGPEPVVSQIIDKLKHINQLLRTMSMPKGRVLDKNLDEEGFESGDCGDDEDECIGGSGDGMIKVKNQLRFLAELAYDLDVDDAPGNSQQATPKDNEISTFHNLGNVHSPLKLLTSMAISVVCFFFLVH

- EC50: 3.5 to 4 nM
B1: ARD103 antibody (antibody, human IgG1, kappa, V domains shown)
VH: QVQLVESGAEVKKPGASVKVSCKASGYTFTDYEMHWVRQAPGQGLEWMGALDPKTGDTAYSQKFKGRVTLTADKSTSTAYMELSSLTSEDTAVYYCTRFYSYTYWGQGTLVTVSS
VL: DVVMTQSPLSLPVTPGEPASISCRSSQSLVHSNGNTYLHWYLQKPGQSPQLLIYKVSNRFSGVPDRFSGSGSGTDFTLKISRVEAEDVGVYYCSQNTHVPPTFGQGTKLEIKR
